According to patent publication US20230279089A1:
Each block holds one binder with its values, some of them ahead of it.

Key:
Experiment in all cases: cell-based or functional assay
[1] = biological target: endogenous BMP1 of human primary cardiac fibroblasts (human), P13497
[2] = biological target: BMP1/TLL activity in mouse plasma
[3] = biological target: BMP1/TLL activity in human serum
[4] = biological target: BMP1/TLL activity in rat plasma

Chain of endogenous BMP1 of human primary cardiac fibroblasts (human), P13497 (P13497 121-986): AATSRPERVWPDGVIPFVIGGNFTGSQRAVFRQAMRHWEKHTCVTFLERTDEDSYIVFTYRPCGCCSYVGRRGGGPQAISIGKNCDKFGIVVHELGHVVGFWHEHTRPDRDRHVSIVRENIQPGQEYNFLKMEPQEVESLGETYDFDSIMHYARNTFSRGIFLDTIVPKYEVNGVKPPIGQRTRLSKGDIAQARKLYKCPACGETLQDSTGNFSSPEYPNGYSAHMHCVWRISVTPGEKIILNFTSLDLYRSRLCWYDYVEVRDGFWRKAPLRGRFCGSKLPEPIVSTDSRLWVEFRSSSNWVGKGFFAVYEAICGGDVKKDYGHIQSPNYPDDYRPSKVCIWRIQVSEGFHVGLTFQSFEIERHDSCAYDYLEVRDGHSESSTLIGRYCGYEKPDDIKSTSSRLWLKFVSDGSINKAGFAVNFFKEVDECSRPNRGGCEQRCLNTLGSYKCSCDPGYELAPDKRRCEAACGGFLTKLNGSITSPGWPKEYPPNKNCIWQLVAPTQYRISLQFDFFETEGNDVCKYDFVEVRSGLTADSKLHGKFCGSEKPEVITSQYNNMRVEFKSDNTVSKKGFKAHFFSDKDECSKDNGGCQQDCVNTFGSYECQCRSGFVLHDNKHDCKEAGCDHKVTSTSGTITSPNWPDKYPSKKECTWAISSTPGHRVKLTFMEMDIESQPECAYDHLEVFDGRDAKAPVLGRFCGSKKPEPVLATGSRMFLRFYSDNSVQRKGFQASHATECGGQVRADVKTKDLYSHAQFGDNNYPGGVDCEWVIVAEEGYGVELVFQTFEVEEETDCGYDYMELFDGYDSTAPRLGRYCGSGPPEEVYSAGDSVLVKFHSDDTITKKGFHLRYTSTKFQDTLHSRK

pIC50, scar-in-a-jar (SIJ) assay [1]: 9.8
pIC50, FRET enzyme activity, Mouse plasma (n = 1) [2]: 7.5
pIC50, FRET enzyme activity, Human serum (n = 1) [3]: 10.1
B1: 13Y039-4B06-4334 human variable region on mouse IgG2a LAGA Fc, mouse cKappa (Compound A) (antibody)
heavy: QVQLVQSGAEVKKPGASVKVSCKASGYTFLGYYMSWVRQAPGQGLEWMGWINPLSGETNYAQKFQGRVTMTRDTSISTAYMELSRLRSDDTAVYYCARDTGELDGMNWYFDLWGRGTLVTVSSAKTTAPSVYPLAPVCGDTTGSSVTLGCLVKGYFPEPVTLTWNSGSLSSGVHTFPAVLQSDLYTLSSSVTVTSSTWPSQSITCNVAHPASSTKVDKKIEPRGPTIKPCPPCKCPAPNLAGAPSVFIFPPKIKDVLMISLSPIVTCVVVDVSEDDPDVQISWFVNNVEVHTAQTQTHREDYNSTLRVVSALPIQHQDWMSGKEFKCKVNNKDLPAPIERTISKPKGSVRAPQVYVLPPPEEEMTKKQVTLTCMVTDFMPEDIYVEWTNNGKTELNYKNTEPVLDSDGSYFMYSKLRVEKKNWVERNSYSCSVVHEGLHNHHTTKSFSRTPGK
light: EIVLTQSPATLSLSPGERATLSCRASQSVSSYLAWYQQKPGQAPRLLIYDASNRATGIPARFSGSGSGTDFTLTISSLEPEDFAVYYCQQSDSWPPTFGGGTKVEIKRADAAPTVSIFPPSSEQLTSGGASVVCFLNNFYPKDINVKWKIDGSERQNGVLNSWTDQDSKDSTYSMSSTLTLTKDEYERHNSYTCEATHKTSTSPIVKSFNRNEC

pIC50, FRET enzyme activity, Rat plasma (n = 2) [4]: 9.1
pIC50, FRET enzyme activity, Human serum (n = 1) [3]: 8.7
B2: 13Y039-4B06-4334 human variable region on rat IgG2b LAGA Fc and rat Kappa (Compound C) (antibody)
heavy: QVQLVQSGAEVKKPGASVKVSCKASGYTFLGYYMSWVRQAPGQGLEWMGWINPLSGETNYAQKFQGRVTMTRDTSISTAYMELSRLRSDDTAVYYCARDTGELDGMNWYFDLWGRGTLVTVSSAQTTAPSVYPLAPGCGDTTSSTVTLGCLVKGYFPEPVTVTWNSGALSSDVHTFPAVLQSGLYTLTSSVTSSTWPSQTVTCNVAHPASSTKVDKKVERRNGGIGHKCPTCPTCHKCPVPELAGAPSVFIFPPKPKDILLISQNAKVTCVVVDVSEEEPDVQFSWFVNNVEVHTAQTQPREEQYNSTFRVVSALPIQHQDWMSGKEFKCKVNNKALPSPIEKTISKPKGLVRKPQVYVMGPPTEQLTEQTVSLTCLTSGFLPNDIGVEWTSNGHIEKNYKNTEPVMDSDGSFFMYSKLNVERSRWDSRAPFVCSVVHEGLHNHHVEKSISRPPGK
light: EIVLTQSPATLSLSPGERATLSCRASQSVSSYLAWYQQKPGQAPRLLIYDASNRATGIPARFSGSGSGTDFTLTISSLEPEDFAVYYCQQSDSWPPTFGGGTKVEIKRADAAPTVSIFPPSTEQLATGGASVVCLMNNFYPRDISVKWKIDGTERRDGVLDSVTDQDSKDSTYSMSSTLSLTKADYESHNLYTCEVVHKTSSSPVVKSFNRNEC
